Laboratory results taken from IntAct's records for PubMed 31515488.

B1: Kelch-like protein 40 (Homo sapiens), Q2TBA0 (parent)
chain: MALGLEQAEEQRLYQQTLLQDGLKDMLDHGKFLDCVVRAGEREFPCHRLVLAACSPYFRARFLAEPERAGELHLEEVSPDVVAQVLHYLYTSEIALDEASVQDLFAAAHRFQIPSIFTICVSFLQKRLCLSNCLAVFRLGLLLDCARLAVAARDFICAHFTLVARDADFLGLSADELIAIISSDGLNVEKEEAVFEAVMRWAGSGDAEAQAERQRALPTVFESVRCRLLPRAFLESRVERHPLVRAQPELLRKVQMVKDAHEGRITTLRKKKKGKDGAGAKEADKGTSKAKAEEDEEAERILPGILNDTLRFGMFLQDLIFMISEEGAVAYDPAANECYCASLSNQVPKNHVSLVTKENQVFVAGGLFYNEDNKEDPMSAYFLQFDHLDSEWLGMPPLPSPRCLFGLGEALNSIYVVGGREIKDGERCLDSVMCYDRLSFKWGESDPLPYVVYGHTVLSHMDLVYVIGGKGSDRKCLNKMCVYDPKKFEWKELAPMQTARSLFGATVHDGRIIVAAGVTDTGLTSSAEVYSITDNKWAPFEAFPQERSSLSLVSLVGTLYAIGGFATLETESGELVPTELNDIWRYNEEEKKWEGVLREIAYAAGATFLPVRLNVLCLTKM
B2: Microtubule-associated tumor suppressor candidate 2 (Homo sapiens), Q5JR59-3 (parent)
chain: MGHCCCKPYNCLQCLDKTNESALVKEKELSIELANIRDEVAFHTAKCEKLQKEKEELERRFEDEVKRLGWQQQAELQELEERLQLQFEAEMARLQEEHGDQLLSIRCQHQEQVEDLTASHDAALLEMENNHTVAITILQDDHDHKVQELMSTHELEKKELEENFEKLRLSLQDQVDTLTFQSQSLRDRARRFEEALRKNTEEQLEIALAPYQHLEEDMKSLKQVLEMKNQQIHEQEKKILELEKLAEKNIILEEKIQVLQQQNEDLKARIDQNTVVTRQLSEENANLQEYVEKETQEKKRLSRTNEELLWKLQTGDPTSPIKLSPTSPVYRGSSSGPSSPARVSTTPR
partner: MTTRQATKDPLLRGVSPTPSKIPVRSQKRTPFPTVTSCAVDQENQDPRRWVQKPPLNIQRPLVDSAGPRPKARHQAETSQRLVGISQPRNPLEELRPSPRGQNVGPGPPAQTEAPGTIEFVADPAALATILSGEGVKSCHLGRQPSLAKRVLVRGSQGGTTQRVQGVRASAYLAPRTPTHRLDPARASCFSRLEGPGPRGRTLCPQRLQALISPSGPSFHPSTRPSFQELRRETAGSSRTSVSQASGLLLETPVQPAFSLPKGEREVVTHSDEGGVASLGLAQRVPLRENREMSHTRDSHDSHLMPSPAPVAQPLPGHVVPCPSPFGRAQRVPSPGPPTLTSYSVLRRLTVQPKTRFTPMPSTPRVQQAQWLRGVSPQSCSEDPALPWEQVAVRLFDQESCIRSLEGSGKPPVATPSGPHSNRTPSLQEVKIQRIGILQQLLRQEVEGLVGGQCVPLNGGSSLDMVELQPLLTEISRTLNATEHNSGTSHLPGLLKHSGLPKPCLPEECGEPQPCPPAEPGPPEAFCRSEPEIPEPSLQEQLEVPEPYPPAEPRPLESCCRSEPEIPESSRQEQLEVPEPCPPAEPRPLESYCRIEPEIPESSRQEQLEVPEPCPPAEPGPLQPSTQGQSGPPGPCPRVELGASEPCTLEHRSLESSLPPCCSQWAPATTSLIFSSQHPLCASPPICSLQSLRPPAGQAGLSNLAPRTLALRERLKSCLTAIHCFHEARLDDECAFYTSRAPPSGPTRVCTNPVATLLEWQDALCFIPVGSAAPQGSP
B3: Splicing factor 45 (Homo sapiens), Q96I25 (parent)
chain: MSLYDDLGVETSDSKTEGWSKNFKLLQSQLQVKKAALTQAKSQRTKQSTVLAPVIDLKRGGSSDDRQIVDTPPHVAAGLKDPVPSGFSAGEVLIPLADEYDPMFPNDYEKVVKRQREERQRQRELERQKEIEEREKRRKDRHEASGFARRPDPDSDEDEDYERERRKRSMGGAAIAPPTSLVEKDKELPRDFPYEEDSRPRSQSSKAAIPPPVYEEQDRPRSPTGPSNSFLANMGGTVAHKIMQKYGFREGQGLGKHEQGLSTALSVEKTSKRGGKIIVGDATEKDASKKSDSNPLTEILKCPTKVVLLRNMVGAGEVDEDLEVETKEECEKYGKVGKCVIFEIPGAPDDEAVRIFLEFERVESAIKAVVDLNGRYFGGRVVKACFYNLDKFRVLDLAEQV
partner: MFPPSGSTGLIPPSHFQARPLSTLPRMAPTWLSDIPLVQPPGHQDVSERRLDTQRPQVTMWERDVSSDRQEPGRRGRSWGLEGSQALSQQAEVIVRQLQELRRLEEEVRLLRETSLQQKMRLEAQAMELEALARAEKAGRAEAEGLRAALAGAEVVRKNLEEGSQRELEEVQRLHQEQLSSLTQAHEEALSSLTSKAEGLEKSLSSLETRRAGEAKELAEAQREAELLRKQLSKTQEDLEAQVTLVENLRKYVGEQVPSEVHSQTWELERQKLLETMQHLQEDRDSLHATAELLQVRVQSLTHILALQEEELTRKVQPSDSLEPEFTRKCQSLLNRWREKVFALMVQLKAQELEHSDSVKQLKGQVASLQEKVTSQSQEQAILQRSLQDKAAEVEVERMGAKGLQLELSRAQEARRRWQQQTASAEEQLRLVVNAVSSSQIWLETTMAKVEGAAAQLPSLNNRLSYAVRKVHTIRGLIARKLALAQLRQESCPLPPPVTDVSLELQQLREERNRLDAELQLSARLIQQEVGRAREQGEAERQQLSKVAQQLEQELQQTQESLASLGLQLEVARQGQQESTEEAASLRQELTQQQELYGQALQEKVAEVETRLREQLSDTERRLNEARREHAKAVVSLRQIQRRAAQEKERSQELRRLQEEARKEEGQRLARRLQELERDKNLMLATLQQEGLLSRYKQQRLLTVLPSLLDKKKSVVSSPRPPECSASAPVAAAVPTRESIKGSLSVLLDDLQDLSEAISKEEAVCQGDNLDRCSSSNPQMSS
B4: Vacuolar protein sorting-associated protein 4B (Homo sapiens), O75351 (parent)
chain: MSSTSPNLQKAIDLASKAAQEDKAGNYEEALQLYQHAVQYFLHVVKYEAQGDKAKQSIRAKCTEYLDRAEKLKEYLKNKEKKAQKPVKEGQPSPADEKGNDSDGEGESDDPEKKKLQNQLQGAIVIERPNVKWSDVAGLEGAKEALKEAVILPIKFPHLFTGKRTPWRGILLFGPPGTGKSYLAKAVATEANNSTFFSISSSDLVSKWLGESEKLVKNLFQLARENKPSIIFIDEIDSLCGSRSENESEAARRIKTEFLVQMQGVGVDNDGILVLGATNIPWVLDSAIRRRFEKRIYIPLPEPHARAAMFKLHLGTTQNSLTEADFRELGRKTDGYSGADISIIVRDALMQPVRKVQSATHFKKVRGPSRADPNHLVDDLLTPCSPGDPGAIEMTWMDVPGDKLLEPVVSMSDMLRSLSNTKPTVNEHDLLKLKKFTEDFGQEG
B5: NUT family member 2F (Homo sapiens), A1L443 (parent)
chain: MASNGAYPVLGPGVTVNPGTSLSVFTALPFATPAPGPAHRPPLVTAVVPPAGPLVLSAFPSTPLVAGQDGRGPSGAGASNVFVQMRTEVGPVKPPQAQTLILTQAPLVWQAPGTLCGGVMCPPPLLLAAAPGVPVTSAQVVGGTQACEGGWSHGLPLPPPPPAAQVAPIVSPGNARPWPQGAHGEGSLAPSQAKARPDDSCKPKSVYENFRLWQHYKPLARRHLPQSPDTEALSCFLIPVLRSLARRKPTMTLEEGLWQAMREWQHTSNFDRMIFYEMAEKFLEFEAEEEMQIQKSQWMKGPQSLPPPAPPRLEPRGPPAPEVVKQPVYLPSKDGPKAPTACLPPPRPQRPAETKAHLPPPRPQRPAETNAHLPPPRPQRPAETKVPEEIPPEVVQEYVDIMEELLGSHPGDTGEPEGQREKGKVEQPQEEDGITSDPGLLSYIDKLCSQEDFVTKVEAVIHPRFLEELLSPDPQMDFLALSQELEQEEGLTLAQLVEKRLLSLKEKGCGRAAPRHGTARLDSSPSEFAAGQEAAREVPDPQQRVSVETSPPQTAAQDPQGQGRVRTGMARSEDPAVLLGCQDSPRLKAVRPTSPPQDHRPTCPGLGTKDALGLPGESPVKESHGLAKGSSEETELPGMVYVVGSHHRLRPWRLSQSPVPSSGLLSPGGRGPQGALQSPSAQKRGLSPSPSPASKSKKRPLFGSPSPAEKTPHPGPGLRVSGEQSLAWGLGGPSQSQKRKGDPLASRRKKKRHCSQ
partner: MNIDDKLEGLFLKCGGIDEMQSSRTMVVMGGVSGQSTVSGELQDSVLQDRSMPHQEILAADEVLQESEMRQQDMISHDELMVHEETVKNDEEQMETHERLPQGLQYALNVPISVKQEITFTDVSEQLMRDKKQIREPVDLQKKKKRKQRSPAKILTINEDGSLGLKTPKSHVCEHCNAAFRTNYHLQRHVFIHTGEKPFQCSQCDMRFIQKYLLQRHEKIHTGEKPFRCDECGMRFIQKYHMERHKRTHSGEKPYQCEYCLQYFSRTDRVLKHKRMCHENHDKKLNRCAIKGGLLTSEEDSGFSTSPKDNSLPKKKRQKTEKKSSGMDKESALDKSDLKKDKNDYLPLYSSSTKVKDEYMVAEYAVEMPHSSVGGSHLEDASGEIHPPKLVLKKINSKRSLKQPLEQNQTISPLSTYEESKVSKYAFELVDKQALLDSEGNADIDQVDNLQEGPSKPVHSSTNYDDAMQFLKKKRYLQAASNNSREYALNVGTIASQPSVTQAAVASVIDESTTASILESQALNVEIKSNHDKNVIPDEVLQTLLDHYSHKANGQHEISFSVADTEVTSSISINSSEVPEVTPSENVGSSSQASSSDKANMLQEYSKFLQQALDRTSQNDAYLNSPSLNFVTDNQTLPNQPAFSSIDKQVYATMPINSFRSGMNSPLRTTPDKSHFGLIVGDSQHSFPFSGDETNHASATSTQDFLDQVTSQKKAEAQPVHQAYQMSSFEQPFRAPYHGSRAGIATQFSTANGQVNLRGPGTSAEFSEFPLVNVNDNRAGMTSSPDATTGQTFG
B6: Retinoic acid receptor RXR-gamma (Homo sapiens), P48443 (parent)
chain: MYGNYSHFMKFPAGYGGSPGHTGSTSMSPSAALSTGKPMDSHPSYTDTPVSAPRTLSAVGTPLNALGSPYRVITSAMGPPSGALAAPPGINLVAPPSSQLNVVNSVSSSEDIKPLPGLPGIGNMNYPSTSPGSLVKHICAICGDRSSGKHYGVYSCEGCKGFFKRTIRKDLIYTCRDNKDCLIDKRQRNRCQYCRYQKCLVMGMKREAVQEERQRSRERAESEAECATSGHEDMPVERILEAELAVEPKTESYGDMNMENSTNDPVTNICHAADKQLFTLVEWAKRIPHFSDLTLEDQVILLRAGWNELLIASFSHRSVSVQDGILLATGLHVHRSSAHSAGVGSIFDRVLTELVSKMKDMQMDKSELGCLRAIVLFNPDAKGLSNPSEVETLREKVYATLEAYTKQKYPEQPGRFAKLLLRLPALRSIGLKCLEHLFFFKLIGDTPIDTFLMEMLETPLQIT
partner: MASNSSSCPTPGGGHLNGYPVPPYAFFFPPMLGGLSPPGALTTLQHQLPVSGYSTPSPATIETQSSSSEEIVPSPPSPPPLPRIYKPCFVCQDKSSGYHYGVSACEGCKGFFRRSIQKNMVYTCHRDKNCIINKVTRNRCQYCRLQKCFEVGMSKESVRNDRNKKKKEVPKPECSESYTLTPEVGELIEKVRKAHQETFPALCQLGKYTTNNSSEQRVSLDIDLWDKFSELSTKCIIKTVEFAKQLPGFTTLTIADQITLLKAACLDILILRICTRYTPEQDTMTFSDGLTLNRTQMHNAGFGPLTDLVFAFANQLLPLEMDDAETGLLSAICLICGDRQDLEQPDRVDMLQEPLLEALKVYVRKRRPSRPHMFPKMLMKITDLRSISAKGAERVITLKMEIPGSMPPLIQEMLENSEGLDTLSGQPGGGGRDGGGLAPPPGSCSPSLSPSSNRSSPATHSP

Variants of: B1
Conditions: with smip4_human SPMIP4, Q8N865
Chain of smip4_human SPMIP4, Q8N865 (Q8N865 whole entry): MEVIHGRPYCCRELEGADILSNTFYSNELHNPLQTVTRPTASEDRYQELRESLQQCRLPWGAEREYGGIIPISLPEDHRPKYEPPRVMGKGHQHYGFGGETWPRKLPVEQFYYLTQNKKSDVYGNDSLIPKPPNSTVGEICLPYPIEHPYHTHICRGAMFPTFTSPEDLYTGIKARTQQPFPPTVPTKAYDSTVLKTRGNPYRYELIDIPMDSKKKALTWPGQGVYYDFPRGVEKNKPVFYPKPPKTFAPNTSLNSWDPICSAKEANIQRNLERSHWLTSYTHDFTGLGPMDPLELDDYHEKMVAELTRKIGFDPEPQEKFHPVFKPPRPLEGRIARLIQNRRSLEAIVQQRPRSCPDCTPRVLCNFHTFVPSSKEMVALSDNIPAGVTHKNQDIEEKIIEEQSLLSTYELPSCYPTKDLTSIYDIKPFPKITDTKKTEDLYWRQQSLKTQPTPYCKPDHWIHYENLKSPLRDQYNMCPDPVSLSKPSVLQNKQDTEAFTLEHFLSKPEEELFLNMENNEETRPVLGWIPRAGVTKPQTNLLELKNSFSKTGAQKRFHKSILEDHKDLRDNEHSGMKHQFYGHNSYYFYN

Variant | effect of a mutation on the interaction
D484N | with no effect

Variants of: B2
Conditions: with troap_human TROAP

Variant | effect of a mutation on the interaction
A89V | with no effect

Variants of: B3
Conditions: with cchcr_human CCHCR1, Q8TD31

Variant | effect of a mutation on the interaction
T224I | with no effect

Variants of: B4
Conditions: with anchr_human ZFYVE19, Q96K21
Chain of anchr_human ZFYVE19, Q96K21 (Q96K21 whole entry): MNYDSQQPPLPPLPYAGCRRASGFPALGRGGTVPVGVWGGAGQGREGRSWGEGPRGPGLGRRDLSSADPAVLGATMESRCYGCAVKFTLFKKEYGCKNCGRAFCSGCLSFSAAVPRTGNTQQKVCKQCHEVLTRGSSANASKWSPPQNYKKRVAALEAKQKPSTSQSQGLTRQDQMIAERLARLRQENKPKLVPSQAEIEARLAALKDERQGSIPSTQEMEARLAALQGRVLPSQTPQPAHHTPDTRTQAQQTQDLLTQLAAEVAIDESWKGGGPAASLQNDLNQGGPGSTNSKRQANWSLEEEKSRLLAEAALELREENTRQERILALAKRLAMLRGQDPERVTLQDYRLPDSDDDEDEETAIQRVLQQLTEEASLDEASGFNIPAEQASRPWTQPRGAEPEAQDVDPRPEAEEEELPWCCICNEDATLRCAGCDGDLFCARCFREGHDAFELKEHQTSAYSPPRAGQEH

Variant | effect of a mutation on the interaction
I58M | with no effect

Variants of: B5
Conditions: with zn148_human ZNF148, Q9UQR1

Variant | effect of a mutation on the interaction
N370K | with no effect

Variants of: B6
Conditions: with rara_human RARA

Variant | effect of a mutation on the interaction
A86V | with no effect
